Experimental data: patent publication US20220003777

Columns and labels:
[1] = biological target: T1, CD45, recombinant, P08575
T1 chain: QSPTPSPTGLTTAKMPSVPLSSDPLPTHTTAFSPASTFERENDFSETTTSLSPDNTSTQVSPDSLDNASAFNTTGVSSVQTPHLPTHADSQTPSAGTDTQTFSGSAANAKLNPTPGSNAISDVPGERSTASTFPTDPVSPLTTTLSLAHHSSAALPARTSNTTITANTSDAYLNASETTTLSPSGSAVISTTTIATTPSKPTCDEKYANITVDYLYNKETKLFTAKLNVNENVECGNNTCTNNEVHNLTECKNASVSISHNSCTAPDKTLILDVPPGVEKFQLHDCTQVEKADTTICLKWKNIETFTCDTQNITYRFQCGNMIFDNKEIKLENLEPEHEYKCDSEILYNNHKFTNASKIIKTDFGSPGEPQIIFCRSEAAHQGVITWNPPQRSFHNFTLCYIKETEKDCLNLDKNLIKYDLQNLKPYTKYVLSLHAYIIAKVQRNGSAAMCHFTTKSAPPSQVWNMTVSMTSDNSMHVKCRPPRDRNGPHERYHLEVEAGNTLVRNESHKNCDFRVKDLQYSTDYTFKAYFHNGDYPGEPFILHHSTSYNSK

[2] = biological target: MUC16, native human (cell lines, cell lysates and supernatants, cancer patient ascites), Q8WXI7
[3] = biological target: T2, podocalyxin, recombinant, O00592
T2 chain: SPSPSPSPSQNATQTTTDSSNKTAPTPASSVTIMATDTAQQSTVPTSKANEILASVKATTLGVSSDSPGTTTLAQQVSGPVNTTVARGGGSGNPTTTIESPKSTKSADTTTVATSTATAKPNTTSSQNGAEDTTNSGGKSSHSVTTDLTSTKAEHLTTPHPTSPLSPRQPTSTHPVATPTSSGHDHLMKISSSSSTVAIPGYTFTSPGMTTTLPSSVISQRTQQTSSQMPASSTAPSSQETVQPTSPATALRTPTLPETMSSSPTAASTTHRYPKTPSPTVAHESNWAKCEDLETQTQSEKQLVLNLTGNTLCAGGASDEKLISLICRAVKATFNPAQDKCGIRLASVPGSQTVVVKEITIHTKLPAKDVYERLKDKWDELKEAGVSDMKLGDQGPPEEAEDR

[4] = biological target: T3, Syncam-1, recombinant, Q9BY67
T3 chain: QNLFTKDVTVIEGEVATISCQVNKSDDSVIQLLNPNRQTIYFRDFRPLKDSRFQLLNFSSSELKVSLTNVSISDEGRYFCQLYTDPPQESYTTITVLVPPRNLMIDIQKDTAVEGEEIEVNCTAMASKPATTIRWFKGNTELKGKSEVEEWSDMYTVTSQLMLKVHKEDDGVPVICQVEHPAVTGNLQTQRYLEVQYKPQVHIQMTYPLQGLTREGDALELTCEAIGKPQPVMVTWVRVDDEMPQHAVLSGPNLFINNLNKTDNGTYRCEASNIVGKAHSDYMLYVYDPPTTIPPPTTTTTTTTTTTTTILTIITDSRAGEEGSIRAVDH

[5] = biological target: T4, PSGL-1, recombinant, Q14242
T4 chain: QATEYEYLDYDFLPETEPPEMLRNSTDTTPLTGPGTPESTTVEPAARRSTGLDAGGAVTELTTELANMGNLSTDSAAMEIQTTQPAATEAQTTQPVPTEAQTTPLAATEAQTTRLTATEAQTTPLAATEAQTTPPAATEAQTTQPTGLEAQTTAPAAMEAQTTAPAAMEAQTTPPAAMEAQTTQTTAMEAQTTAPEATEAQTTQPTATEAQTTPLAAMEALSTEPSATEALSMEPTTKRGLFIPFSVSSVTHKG

fetuin, P12763 = biological target: T5, fetuin, P12763
T5 chain: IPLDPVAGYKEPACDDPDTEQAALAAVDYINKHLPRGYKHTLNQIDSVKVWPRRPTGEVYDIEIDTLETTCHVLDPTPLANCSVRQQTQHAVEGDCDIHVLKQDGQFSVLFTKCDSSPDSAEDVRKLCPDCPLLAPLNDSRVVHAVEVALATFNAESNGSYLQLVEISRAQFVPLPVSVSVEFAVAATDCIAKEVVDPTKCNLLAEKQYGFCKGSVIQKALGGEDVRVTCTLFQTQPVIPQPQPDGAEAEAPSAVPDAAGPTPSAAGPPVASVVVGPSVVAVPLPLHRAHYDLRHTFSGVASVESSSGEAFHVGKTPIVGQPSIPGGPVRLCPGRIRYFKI

[6] = biological target: T6, synthetic glycopeptide RPPIT*QSSL
T6 chain: RPPITQSSL

[7] = biological target: T7, CD43, recombinant, P16150
T7 chain: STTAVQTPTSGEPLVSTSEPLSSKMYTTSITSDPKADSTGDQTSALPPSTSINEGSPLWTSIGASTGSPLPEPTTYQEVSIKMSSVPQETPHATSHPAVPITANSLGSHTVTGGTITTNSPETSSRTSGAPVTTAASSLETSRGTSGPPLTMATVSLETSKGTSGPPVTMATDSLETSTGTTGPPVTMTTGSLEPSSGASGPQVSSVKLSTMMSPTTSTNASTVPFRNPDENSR

[8] = biological target: bovine serum albumin, P02769
Sequence of bovine serum albumin, P02769 (P02769 25-607): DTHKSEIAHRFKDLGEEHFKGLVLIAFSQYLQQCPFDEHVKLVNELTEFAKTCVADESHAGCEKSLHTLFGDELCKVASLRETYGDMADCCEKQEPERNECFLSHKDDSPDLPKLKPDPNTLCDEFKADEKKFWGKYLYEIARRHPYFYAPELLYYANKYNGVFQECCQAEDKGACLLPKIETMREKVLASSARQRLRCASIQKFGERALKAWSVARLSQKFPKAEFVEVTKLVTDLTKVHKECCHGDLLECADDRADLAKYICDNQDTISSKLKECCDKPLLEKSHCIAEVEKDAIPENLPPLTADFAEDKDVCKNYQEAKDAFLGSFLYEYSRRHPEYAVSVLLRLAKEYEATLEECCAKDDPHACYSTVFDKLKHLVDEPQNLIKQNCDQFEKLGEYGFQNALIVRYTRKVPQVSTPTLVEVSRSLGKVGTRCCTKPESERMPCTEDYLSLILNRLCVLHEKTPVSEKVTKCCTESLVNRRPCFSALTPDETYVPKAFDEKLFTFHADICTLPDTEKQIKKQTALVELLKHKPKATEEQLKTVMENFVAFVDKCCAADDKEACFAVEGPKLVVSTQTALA

[9] = biological target: T8, recombinant human MUC16, Q8WXI7
T8 chain: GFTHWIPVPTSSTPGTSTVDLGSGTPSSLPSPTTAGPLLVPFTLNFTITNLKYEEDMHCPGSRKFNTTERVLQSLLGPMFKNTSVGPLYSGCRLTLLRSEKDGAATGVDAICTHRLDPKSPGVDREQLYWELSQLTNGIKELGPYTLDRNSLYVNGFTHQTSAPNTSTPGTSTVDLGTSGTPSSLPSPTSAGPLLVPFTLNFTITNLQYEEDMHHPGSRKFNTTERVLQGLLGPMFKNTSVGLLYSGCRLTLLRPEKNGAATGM

[10] = biological target: T9, C1 esterase inhibitor, human plasma-derived, P05155
T9 chain: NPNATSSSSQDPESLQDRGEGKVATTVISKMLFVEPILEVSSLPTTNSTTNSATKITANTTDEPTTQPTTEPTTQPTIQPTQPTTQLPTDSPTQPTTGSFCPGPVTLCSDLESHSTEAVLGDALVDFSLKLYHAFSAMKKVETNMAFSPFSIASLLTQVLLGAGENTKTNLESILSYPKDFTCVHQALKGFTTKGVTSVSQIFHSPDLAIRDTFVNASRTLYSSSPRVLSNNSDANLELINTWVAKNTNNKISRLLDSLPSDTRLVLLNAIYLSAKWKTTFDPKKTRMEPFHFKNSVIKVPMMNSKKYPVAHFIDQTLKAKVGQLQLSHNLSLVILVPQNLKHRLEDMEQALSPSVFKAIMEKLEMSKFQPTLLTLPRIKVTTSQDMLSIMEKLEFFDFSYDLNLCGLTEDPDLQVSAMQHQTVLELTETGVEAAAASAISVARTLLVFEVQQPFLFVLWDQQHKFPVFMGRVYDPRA

B1: Secreted Protease of C1 Esterase Inhibitor (StcE), recombinant N-terminal His-tagged (protein)
chain: ADNNSAIYFNTSQPINDLQGSLAAEVKFAQSQILPAHPKEGDSQPHLTSLRKSLLLVRPVKADDKTPVQVEARDDNNKILGTLTLYPPSSLPDTIYHLDGVPEGGIDFTPHNGTKKIINTVAEVNKLSDASGSSIHSHLTNNALVEIHTANGRWVRDIYLPQGPDLEGKMVRFVSSAGYSSTVFYGDRKVTLSVGNTLLFKYVNGQWFRSGELENNRITYAQHIWSAELPAHWIVPGLNLVIKQGNLSGRLNDIKIGAPGELLLHTIDIGMLTTPRDRFDFAKDKEAHREYFQTIPVSRMIVNNYAPLHLKEVMLPTGELLTDMDPGNGGWHSGTMRQRIGKELVSHGIDNANYGLNSTAGLGENSHPYVVAQLAAHNSRGNYANGIQVHGGSGGGGIVTLDSTLGNEFSHEVGHNYGLGHYVDGFKGSVHRSAENNNSTWGWDGDKKRFIPNFYPSQTNEKSCLNNQCQEPFDGHKFGFDAMAGGSPFSAANRFTMYTPNSSAIIQRFFENKAVFDSRSSTGFSKWNADTQEMEPYEHTIDRAEQITASVNELSESKMAELMAEYAVVKVHMWNGNWTRNIYIPTASADNRGSILTINHEAGYNSYLFINGDEKVVSQGYKKSFVSDGQFWKERDVVDTREARKPEQFGVPVTTLVGYYDPEGTLSSYIYPAMYGAYGFTYSDDSQNLSDNDCQLQVDTKEGQLRFRLANHRANNTVMNKFHINVPTESQPTQATLVCNNKILDTKSLTPAPEGLTYTVNGQALPAKENEGCIVSVNSGKRYCLPVGQRSGYSLPDWIVGQEVYVDSGAKAKVLLSDWDNLSYNRIGEFVGNVNPADMKKVKAWNGQYLDFSKPRSMRVVYK
cleavage of substrate (gel shift) [1]: cleaved all tested mucin-like glycoproteins
cleavage in ascites fluid (anti-MUC16 Western blot) [2]: dose-dependent decrease in apparent molecular weight
cleavage of substrate (gel shift) [3]: cleaved all tested mucin-like glycoproteins
cleavage of substrate (gel shift) [4]: cleaved all tested mucin-like glycoproteins
cleavage of substrate (gel shift) [5]: cleaved all tested mucin-like glycoproteins
cleavage of substrate (gel shift) (fetuin, P12763): did not cleave
cleavage of synthetic glycopeptide (MS) [6]: StcE cleaved a synthetic peptide containing a single GalNAc
cleavage of substrate (gel shift) [7]: cleaved all tested mucin-like glycoproteins
cleavage of substrate (gel shift) [8]: did not cleave
cleavage of substrate (gel shift) [9]: cleaved all tested mucin-like glycoproteins
cleavage of substrate (SDS-PAGE, glycoprotein stain) [10]: active against C11NH
